This note sets out measurements from PMC3627575.

For data set [1], the target named is T1, vIRF-1 DBD (vIRF-1 88-196) (Kaposi's sarcoma-associated herpesvirus …, UniProt F5HF68 88-196). The data set can be described thus: thermal stability shift assay.
Data set [2] addresses T1, vIRF-1 DBD (vIRF-1 88-196). The data set can be described thus: X-ray crystallography.

T1 sequence (F5HF68 88-196): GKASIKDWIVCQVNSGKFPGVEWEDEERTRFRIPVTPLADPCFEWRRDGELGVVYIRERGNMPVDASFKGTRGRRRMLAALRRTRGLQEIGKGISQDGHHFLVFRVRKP

B1: S0_x2 (dsDNA)
DNA 1: AGCGTCGAGACGCGCGTCGAGACGC
DNA 2: TGCGTCTCGACGCGCGTCTCGACGC
With B1, in data set [1], the binding result is reported as “binds”.

B2: v1 (dsDNA)
DNA 1: AGGCACGCGTCCAGGCAACCGGG
DNA 2: TCCCGGTTGCCTGGACGCGTGCC
For the molecule B2, the binding result in data set [1] was “binds”.

B3: PRDIII-I (dsDNA)
DNA 1: GAGGAAAACTGAAAGGGAACTGAAA
DNA 2: TTTCAGTTCCCTTTCAGTTTTCCTC
Regarding B3, the binding result in data set [1] is given as “binds”.

B4: N25 (dsDNA)
DNA 1: TATACAAACCCCTTACCAATATCATA
DNA 2: ATATGATATTGGTAAGGGGTTTGTAT
Take B4: the binding result in data set [1] is “binds”.

B5: dsS0mm (dsDNA)
DNA 1: GCGTCGAGACGC
DNA 2: GCGTCGAGACGC
B5: in data set [2], the binding result is reported as “binds”.

B6: v2 (dsDNA)
DNA 1: ATAACTGGGAGGCGACGCTGGCG
DNA 2: TCGCCAGCGTCGCCTCCCAGTTA
With B6, the binding result in data set [1] is given as “binds”.
